Measured values from patent publication US20120064078.

Biological target: Thr90 phosphorylated Hsp90α (pT90-Hsp90α), recombinant human Hsp90α phosphorylated by recombinant protein kinase A

B1: recombinant human PP5 protein (protein phosphatase 5) (protein)
chain: MAMAEGERTECAEPPRDEPPADGALKRAEELKTQANDYFKAKDYENAIKFYSQAIELNPSNAIYYGNRSLAYLRTECYGYALGDATRAIELDKKYIKGYYRRAASNMALGKFRAALRDYETVVKVKPHDKDAKMKYQECNKIVKQKAFERAIAGDEHKRSVVDSLDIESMTIEDEYSGPKLEDGKVTISFMKELMQWYKDQKKLHRKCAYQILVQVKEVLSKLSTLVETTLKETEKITVCGDTHGQFYDLLNIFELNGLPSETNPYIFNGDFVDRGSFSVEVILTLFGFKLLYPDHFHLLRGNHETDNMNQIYGFEGEVKAKYTAQMYELFSEVFEWLPLAQCINGKVLIMHGGLFSEDGVTLDDIRKIERNRQPPDSGPMCDLLWSDPQPQNGRSISKRGVSCQFGPDVTKAFLEENNLDYIIRSHEVKAEGYEVAHGGRCVTVFSAPNYCDQMGNKASYIHLQGSDLRPQFHQFTAVPHPNVKPMAYANTLLQLGMM
- release of free phosphate (non-radioactive serine/threonine phosphatase assay): the release of free phosphate was also significantly increased, P value<0.005
